For assay [1], the target named is recombinant hCD134 with C-terminal human FcHis-tag replacing the transmembrane domain (hCD134-hFcHis) (human) (UniProt P43489). In words: SPR; Biacore T200, CM5 chip; hCD134-hFcHis captured via immobilised Protein A; soluble tetramer injected; multi-cycle kinetics, 1:1 binding fit.
The target of assay [2] is anti-gH Mab OHV-3 (murine). In words: SPR; Biacore T200, CM5 chip; Mab captured via immobilised Protein A/Protein L; soluble tetramer injected at 5, 10, 20, 40 and 80 nM; single-cycle kinetics. (In general: Surface plasmon resonance follows binding to a sensor surface in real time, without labels.)
Sequence of anti-gH Mab OHV-3 (murine) (heavy, as listed by the source, chain 1 of 2): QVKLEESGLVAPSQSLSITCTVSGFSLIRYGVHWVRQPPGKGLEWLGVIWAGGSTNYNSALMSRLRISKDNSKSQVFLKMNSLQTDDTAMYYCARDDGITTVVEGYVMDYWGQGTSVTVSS
Sequence of anti-gH Mab OHV-3 (murine) (light, as listed by the source, chain 2 of 2): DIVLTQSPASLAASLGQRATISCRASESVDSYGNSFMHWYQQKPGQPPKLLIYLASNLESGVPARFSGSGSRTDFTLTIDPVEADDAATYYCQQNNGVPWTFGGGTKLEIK
For assay [3], the target named is recombinant hCD134 with C-terminal human FcHis-tag replacing the transmembrane domain (hCD134-hFcHis) (human) (UniProt P43489). In words: SPR; Biacore T200, CM5 chip; hCD134-hFcHis captured via immobilised Protein A; soluble tetramer injected; steady-state affinity analysis of the response units at equilibrium.

Consider one substance from publication PMC7367449.

Sequence of UniProt P43489 (P43489 29-214): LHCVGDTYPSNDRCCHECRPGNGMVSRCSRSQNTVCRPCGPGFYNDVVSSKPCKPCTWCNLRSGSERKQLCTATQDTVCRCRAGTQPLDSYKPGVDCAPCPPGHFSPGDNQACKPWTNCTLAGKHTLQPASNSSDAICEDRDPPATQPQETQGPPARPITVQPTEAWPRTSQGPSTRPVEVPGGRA

What is called Kd is the equilibrium constant for the complex coming apart. Broadly, the koff is the first-order rate constant of dissociation. As usually defined, the kon is a measure of how fast the partners come together. Regarding “soluble HHV-6B gH/gL/gQ1/gQ2 complex (HHV-6B tetramer)”, in assay [1], the Kd stood at 14 nM, the koff is 0.0158 s⁻¹ and the kon is 1.1e+06 M⁻¹ s⁻¹. In assay [2], this substance yielded a Kd of 2.7 nM, a koff of 0.00035 s⁻¹ and a kon of 130000 M⁻¹ s⁻¹. In addition, the Kd in assay [3] came out at 18 nM.
